This passage reports Kd and IC50 results from the Immune Epitope Database (IEDB).

Some results are limits rather than exact numbers.

For experiment [1], the target named is HLA-A*30:01. Briefly: IEDB peptide-MHC binding, purified MHC/direct/fluorescence; filed as Kd, often an IC50 or EC50 that approximates it; ≥ and ≤ were set here for values at or beyond the usual limits of such assays. The conditions noted are these: source organism: Rickettsia typhi.
In experiment [2] the target is HLA-A*29:02. Described as above. The conditions noted are these: source organism: Rickettsia typhi.
Experiment [3] concerns the target HLA-A*24:03. The description is as above. The conditions noted are these: source organism: Rickettsia typhi.
For experiment [4], the target named is HLA-A*02:11. The description is as above. The conditions noted are these: source organism: Rickettsia typhi.
Experiment [5] concerns the target HLA-A*80:01. Described as above. Particulars: source organism: Rickettsia typhi.
In experiment [6] the target is HLA-A*02:12. Described as above. The conditions noted are these: source organism: Rickettsia typhi.
Experiment [7] concerns the target HLA-A*23:01. The description is as above. The conditions noted are these: source organism: Rickettsia typhi.
The target of experiment [8] is HLA-B*44:02. Described as above. The conditions noted are these: source organism: Rickettsia typhi.
Experiment [9] deals with HLA-B*51:01. Described as above. The conditions noted are these: source organism: Rickettsia typhi.
Experiment [10] concerns the target HLA-A*03:01. Described as above.
In experiment [11] the target is HLA-A*02:50. The description is as above. Particulars: source organism: Rickettsia typhi.
The target of experiment [12] is HLA-A*69:01. Described as above.
For experiment [13], the target named is HLA-A*02:10. The description is as above. Particulars: source organism: Rickettsia typhi.
Experiment [14] concerns the target HLA-A*02:19. Described as above. The conditions noted are these: source organism: Rickettsia typhi.
Experiment [15] concerns the target HLA-B*15:01. The description is as above.
Experiment [16] concerns the target HLA-B*57:01. The description is as above.
Experiment [17] concerns the target HLA-B*58:01. Briefly: IEDB peptide-MHC binding, purified MHC/competitive/fluorescence; ≥ and ≤ were set here for values at or beyond the usual limits of such assays. Particulars: source organism: Homo sapiens.
Experiment [18] addresses HLA-B*51:01. Described as above. The conditions noted are these: source organism: Homo sapiens.
Experiment [19] addresses HLA-A*02:01. Nature of the experiment: IEDB peptide-MHC binding, purified MHC/competitive/fluorescence; filed as Kd, often an IC50 or EC50 that approximates it; ≥ and ≤ were set here for values at or beyond the usual limits of such assays.
Experiment [20] has as its target HLA-B*15:17. The experiment is described as above.
The target in experiment [21] is HLA-A*26:03. The experiment is described as above. The conditions noted are these: source organism: Variola virus.
In experiment [22] the target is HLA-A*68:02. The description is as above. The conditions noted are these: source organism: Variola virus.
Experiment [23] has as its target HLA-A*31:01. Briefly: IEDB peptide-MHC binding, purified MHC/direct/fluorescence; filed as Kd, often an IC50 or EC50 that approximates it; ≥ and ≤ were set here for values at or beyond the usual limits of such assays. The conditions noted are these: source organism: Camelpox virus CMS.
In experiment [24] the target is HLA-A*01:01. The description is as above. The conditions noted are these: source organism: Camelpox virus CMS.
Experiment [25] deals with HLA-B*18:01. Described as above. Particulars: source organism: Camelpox virus CMS.
For experiment [26], the target named is HLA-B*46:01. The experiment is described as above. Particulars: source organism: Camelpox virus CMS.
Experiment [27] concerns the target HLA-B*58:01. The description is as above. The conditions noted are these: source organism: Camelpox virus CMS.
The target in experiment [28] is HLA-B*48:01. The experiment is described as above. Particulars: source organism: Camelpox virus CMS.
Experiment [29] addresses HLA-B*40:01. Described as above. The conditions noted are these: source organism: Camelpox virus CMS.
In experiment [30] the target is HLA-B*27:05. Described as above. Particulars: source organism: Camelpox virus CMS.
In experiment [31] the target is HLA-A*11:01. The experiment is described as above. Particulars: source organism: Camelpox virus CMS.
For experiment [32], the target named is HLA-B*07:02. The experiment is described as above. The conditions noted are these: source organism: Camelpox virus CMS.
The target in experiment [33] is HLA-A*29:02. Briefly: IEDB peptide-MHC binding, purified MHC/competitive/fluorescence; filed as Kd, often an IC50 or EC50 that approximates it; ≥ and ≤ were set here for values at or beyond the usual limits of such assays. The conditions noted are these: source organism: Escherichia coli O139:H28 str. E24377A.
In experiment [34] the target is HLA-A*26:01. The experiment is described as above. The conditions noted are these: source organism: Escherichia coli O139:H28 str. E24377A.
In experiment [35] the target is HLA-A*25:01. Described as above. The conditions noted are these: source organism: Escherichia coli O139:H28 str. E24377A.
In experiment [36] the target is HLA-B*18:01. The experiment is described as above. Particulars: source organism: Escherichia coli O139:H28 str. E24377A.
Experiment [37] concerns the target HLA-B*39:01. Described as above. The conditions noted are these: source organism: Escherichia coli O139:H28 str. E24377A.
Experiment [38] addresses HLA-A*80:01. The description is as above. Particulars: source organism: Escherichia coli O139:H28 str. E24377A.
For experiment [39], the target named is HLA-A*02:12. Described as above. The conditions noted are these: source organism: Escherichia coli O139:H28 str. E24377A.
Experiment [40] addresses HLA-B*27:03. The experiment is described as above. Particulars: source organism: Escherichia coli O139:H28 str. E24377A.
For experiment [41], the target named is HLA-B*51:01. The experiment is described as above.
Experiment [42] concerns the target HLA-A*03:01. The experiment is described as above. The conditions noted are these: source organism: Escherichia coli O139:H28 str. E24377A.
Experiment [43] concerns the target HLA-B*15:01. Described as above.
For experiment [44], the target named is HLA-B*57:01. The description is as above. Particulars: source organism: Escherichia coli O139:H28 str. E24377A.
Experiment [45] deals with HLA-B*08:01. The experiment is described as above. Particulars: source organism: Escherichia coli 536.
Experiment [46] has as its target HLA-B*07:02. The description is as above. The conditions noted are these: source organism: Escherichia coli 536.
[47] abbreviates: source organism: Rickettsia prowazekii.
Where [48] appears, read: source organism: Camelpox virus CMS.
The mark [49] stands for this setting: source organism: Escherichia coli O139:H28 str. E24377A.
The mark [50] stands for this setting: source organism: Escherichia coli 536.

Usually Kd stands for the concentration at which binding is half-saturated. Low values mean higher affinity, high ones lower affinity. As for ELYPTVNTY, the dissociation constant (Kd) in [1] is not below 20 µM; in experiment [2], 0.055 µM; in experiment [3] it was not below 20 µM; in [4], not below 20 µM; in experiment [5] it was 4.5 µM; in [6], not below 20 µM. In addition, the Kd in experiment [7] is not below 20 µM; in [8] it was not below 20 µM; in [9], not below 20 µM; in experiment [10] (setting [47]), 2.02 µM; in [11], not below 20 µM; in [12] (setting [47]), 14.5 µM. Also, the equilibrium dissociation constant (Kd) in experiment [13] is not below 20 µM; in experiment [14] it was not below 20 µM; in [15] (setting [47]), 0.228 µM; in experiment [16] (source organism: Rickettsia typhi) it was not below 20 µM.
Usually IC50 stands for the concentration needed to halve the response being measured. A higher IC50 goes with lower potency. Regarding MASSPTSI, the IC50 was determined as 0.987 µM in experiment [17] and 1.52 µM in [18].
With RVFDKADGK, the Kd in experiment [19] (source organism: Variola virus) is 1.05 µM; in [20] (source organism: Variola virus) it was not below 20 µM; in experiment [21] it was not below 20 µM; in experiment [22], not below 20 µM; in experiment [23] it was 0.0997 µM; in experiment [24] it was not below 20 µM. Besides, the Kd in experiment [25] was not below 20 µM; in experiment [26], not below 20 µM; in [27] it was not below 20 µM; in experiment [28], not below 20 µM; in experiment [29], not below 20 µM; in experiment [10] (setting [48]), 0.0788 µM. Further, the Kd in experiment [30] is not below 20 µM; in experiment [12] (setting [48]), not below 20 µM; in experiment [31], 0.127 µM; in experiment [15] (setting [48]), not below 20 µM; in experiment [16] (setting [48]), not below 20 µM; in [32], not below 20 µM.
On to SIPFGLMSA, for which the Kd in experiment [19] (setting [49]), in [33], in experiment [34], in experiment [35], in experiment [20] (setting [49]) and in [36] was not below 20 µM throughout. Further, the Kd in [37] is not below 20 µM; in experiment [38] it was not below 20 µM; in [39], 0.881 µM; in [40], not below 20 µM; in [41] (setting [49]), not below 20 µM; in [42] it was not below 20 µM. The Kd in experiment [43] (setting [49]) and in experiment [44] was not below 20 µM in each case.
Take SPLHVFVAV: the Kd in experiment [45] is not below 20 µM; in experiment [41] (setting [50]) it was 3.66 µM; in experiment [43] (setting [50]), not below 20 µM; in [46], 0.0512 µM.
